According to doi:10.1101/291294 (bioRxiv, 2018):

B1: GST-tagged human GABARAP (natural protein)
chain: MKFVYKEEHPFEKRRSEGEKIRKKYPDRVPVIVEKAPKARIGDLDKKKYLVPSDLTVGQFYFLIRKRIHLRAEDALFFFVNNVIPPTSATMGQLYQEHHEEDFFLYIAYSDESVYGL

Key:
[1] = biological target: Recombinant WT XIAP protein (human, UniProt P98170 1-497); test: pull-down
GST-tagged human GABARAP = biological target: B1; test: pull-down

Chain of Recombinant WT XIAP protein (P98170 whole entry): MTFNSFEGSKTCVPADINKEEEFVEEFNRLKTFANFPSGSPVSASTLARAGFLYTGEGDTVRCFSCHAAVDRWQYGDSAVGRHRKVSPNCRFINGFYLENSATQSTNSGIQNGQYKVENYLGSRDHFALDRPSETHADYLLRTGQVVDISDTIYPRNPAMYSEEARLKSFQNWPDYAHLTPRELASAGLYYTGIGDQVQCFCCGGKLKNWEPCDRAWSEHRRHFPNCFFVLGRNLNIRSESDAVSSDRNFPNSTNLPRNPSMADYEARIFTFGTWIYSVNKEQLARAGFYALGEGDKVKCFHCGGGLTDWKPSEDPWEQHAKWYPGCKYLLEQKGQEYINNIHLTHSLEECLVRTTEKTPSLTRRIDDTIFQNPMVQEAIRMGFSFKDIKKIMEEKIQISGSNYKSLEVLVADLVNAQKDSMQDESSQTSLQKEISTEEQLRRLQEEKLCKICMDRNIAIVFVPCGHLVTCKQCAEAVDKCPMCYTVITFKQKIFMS

B1
binding result [1]: binds

EDEWVNVQY [GIM-containing peptide EDEWVNVQY]
binding result (GST-tagged human GABARAP): binds
